The source of these data is publication PMC4960544, “Production of full-length soluble Plasmodium falciparum RH5 protein vaccine using a Drosophila melanogaster Schneider 2 stable cell line system” (Scientific Reports, 2016).

The target in experiment [1] is T1, PfRH5 protein variant version 4.0 (3D7 sequence, N38Q and N214Q) (Plasmodium falciparum (3D7 clone), UniProt Q8IFM5 26-526, N38Q | N214Q).
T1 construct: only two of the putative N-linked glycosylation sites mutated (N38Q and N214Q); The construct has an N-terminal BiP insect signal peptide (…); No cleavage site for the His6 tag is described; No evidence of glycosylation was found for this variant; also called PfRH5 v4.0; v4.0; source: without the Con A step
T1 sequence: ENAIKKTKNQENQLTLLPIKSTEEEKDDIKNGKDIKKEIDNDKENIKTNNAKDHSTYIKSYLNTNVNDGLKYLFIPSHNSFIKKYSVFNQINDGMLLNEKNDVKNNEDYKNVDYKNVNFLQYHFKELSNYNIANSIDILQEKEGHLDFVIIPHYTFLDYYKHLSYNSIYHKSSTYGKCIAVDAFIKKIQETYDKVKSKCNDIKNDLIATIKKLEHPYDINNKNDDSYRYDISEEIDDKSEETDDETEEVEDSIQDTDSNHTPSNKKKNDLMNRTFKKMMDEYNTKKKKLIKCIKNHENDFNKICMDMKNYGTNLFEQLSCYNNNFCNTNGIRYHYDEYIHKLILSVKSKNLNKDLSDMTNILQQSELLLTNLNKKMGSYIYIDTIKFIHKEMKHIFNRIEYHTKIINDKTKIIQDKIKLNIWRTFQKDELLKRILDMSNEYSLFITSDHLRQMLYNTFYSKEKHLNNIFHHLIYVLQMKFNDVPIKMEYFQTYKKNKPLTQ
The experiment in a line: SPR; basigin immobilised on a CM5 chip by amine coupling (850 RU); PfRH5 variant injected at 8-0.0625 uM, 120 s at 30 uL/min, 300 s dissociation; 20 C; 10 mM HEPES pH 7.4, 150 mM NaCl, 3 mM EDTA, 0.005% Tween-20, 2 mg/mL dextran, 1 mg/mL salmon sperm DNA; blank surface subtracted; global 1:1 interaction model. Conditions: both partners purified.

For experiment [2], the target named is T2, PfRH5 protein variant version 2.0 (3D7 sequence, four N-linked glycosylation sequons mutated Thr to Ala) (Plasmodium falciparum (3D7 clone), UniProt Q8IFM5 26-526, Thr to Ala in the sequon starting at N38 (position 40 worked out) | Thr to Ala …).
T2 construct: The construct has an N-terminal BiP insect signal peptide (…); No cleavage site for the His6 tag is described; also called PfRH5 v2.0; v2.0
T2 sequence: T1 sequence with Q13N, T15A, Q189N, T191A, T261A, T274A
Described as above. Conditions: both partners purified.

Positions count from the first letter of the chain named.

B1: recombinant basigin, immunoglobulin domains 1 and 2 of the short isoform (22-205) (domain or fragment)
chain: GAAGTVFTTVEDLGSKILLTCSLNDSATEVTGHRWLKGGVVLKEDALPGQKTEFKVDSDDQWGEYSCVFLPEPMGTANIQLHGPPRVKAVKSSEHINEGETAMLVCKSESVPPVTDWAWYKITDSEDKALMNGSESRFFVSSSQGRSELHIENLNMEADPGQYRCNGTSSKGSDQAIITLRVRSH
notes: additional glycine left at the N-terminus from the TEV cleavage site; basigin (CD147), immunoglobulin domains 1 and 2 of the short isoform, residues 22-205; numbers count on: the short isoform; basigin is spoken of as the red blood cell receptor of the human malaria parasite; also called CD147; PfRH5 receptor; not shown: His6, N-terminal, cleaved
As for B1, the binding result in experiment [1] and in experiment [2] was “binds” in each case.
